This note sets out measurements from paper PMC7000413, “CDX-301: a novel medical countermeasure for hematopoietic acute radiation syndrome in mice” (Scientific Reports, 2020).

The term stoichiometry N denotes a count of units in the complex or per binding partner.

This data set concerns the molecule itself. Put plainly: SEC; size exclusion chromatography of purified CDX-301; apparent molecular weight approximately 44,000 Daltons; conditions not given.

B1: CDX-301, soluble recombinant human Fms-related tyrosine kinase 3 ligand (Flt3L) (ligand)
chain: TQDCSFQHSPISSDFAVKIRELSDYLLQDYPVTVASNLQDEELCGGLWRLVLAQRWMERLKTVAGSKMQGLLERVNTEIHFVTKCAFQPPPSCLRFVQTNISRLLQETSEQLVALKPWITRQNFSRCLELQCQPDSSTLPPPWSPRPLEATAP
modifications: glycoprotein with 2 potential N-linked (N100, N123) and 5 potential O-linked (S136, S137, T138, S144, T151) glycosylation sites; 3 intramolecular disulfide bonds
notes: human Flt3 ligand, the 153 N-terminal amino acids of the extracellular domain; 3 C-terminal residues of the extracellular domain, the transmembrane domain and the cytoplasmic domain eliminated; mature, secreted protein of 153 amino acids. numbers count on: the mature protein; Non-covalent homodimer; also called rhuFlt3L; Flt3 Ligand; source: manufactured under cGMPs by Celldex Therapeutics
As for B1, the “stoichiometry N” value is 2.
